Measurements from patent publication US20100144645A1, “COMPOSITIONS AND METHODS FOR ENHANCING […] POTENCY OF […]-COMPOUNDS, A[…] ADVERSE SIDE EFFECTS, AND […] ABUSE” (SHIRE LLC, priority 2006, published 2010).
Counter-ions that a name gives are not always drawn. Residues, ends and D or L forms follow the SMILES beside them. *: point of attachment. X4 = CC(=O)Oc1ccc2c3c1OC1C(O*)=CCC4[C@@H](C2)N(C)CC[C@]314; X2 = CN1CC[C@]23c4c5ccc(O)c4O[C@H]2C(O*)=CC[C@H]3[C@H]1C5; X1 = COc1ccc2c3c1OC1C(O*)=CCC4[C@@H](C2)N(C)CC[C@]314; X3 = CN1CC[C@]23c4c5ccc(O)c4OC2C(O*)=CCC3[C@H]1C5

Key:
[1] = Intranasal bioavailability of hydromorphone conjugates; conditions: rats; for IN AUC %: corrected value calculated based on the bioavailability of the control (HM); for IN Cmax %: corrected value calculated based on the control (HM)
[2] = Oral bioavailability of hydromorphone conjugates; conditions: rats; for Oral AUC %: corrected value calculated based on the bioavailability of the control (HM); for Oral Cmax %: corrected value calculated based on the control (HM)
[3] = stability 90 C., 20 min (V, BP, TW, BS) of hydrocodone conjugates; conditions: for stability 90 C., 20 min BP: BP (abbreviation not defined); for stability 90 C., 20 min BS: BS (abbreviation not defined); for stability 90 C., 20 min TW: TW (abbreviation not defined); for stability 90 C., 20 min V: V (abbreviation not defined)
[4] = Oral bioavailability of hydrocodone conjugates (plasma hydrocodone plus hydromorphone); conditions: oral, rats; relative to hydrocodone

What does the source list for CN1CC[C@]23c4c5ccc(O)c4O[C@H]2C(OC(=O)[C@H](Cc2ccccc2)NC(=O)[C@H](Cc2ccccc2)NC(=O)[C@H](Cc2ccccc2)NC(=O)[C@H](CCC(=O)O)NC(=O)[C@@H](N)CCC(=O)O)=CC[C@H]3[C@H]1C5 [EEFFF-HM, Glu2-Phe3-Hydromorphone.Dihydrochloride] (H-EEFFF-X2)?
IN AUC % [1]: 52%; IN Cmax % [1]: 57%; Oral AUC % [2]: 79%; Oral Cmax % [2]: 78%

For CC[C@H](C)[C@H](NC(=O)[C@H](CCC(=O)O)NC(=O)[C@@H](N)CCC(=O)O)C(=O)OC1=CC[C@H]2[C@H]3Cc4ccc(O)c5c4[C@@]2(CCN3C)[C@H]1O5 [EEI-HM], which “IN AUC %” value [1] is on record?
Its value is 59%.

What about the “IN Cmax %” value [1] of the same molecule?
Its value is 88%.

And the “Oral AUC %” value [2]?
Its value is 56%.

And the “Oral Cmax %” value [2]?
The value was 73%.

With CC(C)C[C@H](NC(=O)[C@H](CCC(=O)O)NC(=O)[C@@H](N)CCC(=O)O)C(=O)OC1=CC[C@H]2[C@H]3Cc4ccc(O)c5c4[C@@]2(CCN3C)[C@H]1O5 [EEL-HM] as the molecule, how does the “IN AUC %” value [1] read?
The value was 84%.

And the “IN Cmax %” value [1]?
Its value is 98%.

What about the “Oral AUC %” value [2] of the same molecule?
The value was 27%.

And the “Oral Cmax %” value [2]?
Its value is 49%.

What does the source list for CC(C)[C@H](NC(=O)[C@H](CCC(=O)O)NC(=O)[C@@H](N)CCC(=O)O)C(=O)OC1=CC[C@H]2[C@H]3Cc4ccc(O)c5c4[C@@]2(CCN3C)[C@H]1O5 [EEV-HM]?
IN AUC % [1]: 31%; IN Cmax % [1]: 70%; Oral AUC % [2]: 21%; Oral Cmax % [2]: 50%

For CC[C@H](C)[C@H](NC(=O)[C@H](Cc1ccccc1)NC(=O)[C@@H](N)Cc1ccccc1)C(=O)OC1=CC[C@H]2[C@H]3Cc4ccc(O)c5c4[C@@]2(CCN3C)[C@H]1O5 [FFI-HM], which “IN AUC %” value [1] is on record?
Its value is 79%.

And the “IN Cmax %” value [1]?
The value was 92%.

What about the “Oral AUC %” value [2] of the same molecule?
The value was 18%.

And the “Oral Cmax %” value [2]?
Its value is 47%.

With CC(C)C[C@H](NC(=O)[C@H](Cc1ccccc1)NC(=O)[C@@H](N)Cc1ccccc1)C(=O)OC1=CC[C@H]2[C@H]3Cc4ccc(O)c5c4[C@@]2(CCN3C)[C@H]1O5 [FFL-HM] as the molecule, how does the “IN AUC %” value [1] read?
The value was 92%.

And the “IN Cmax %” value [1]?
The value was 96%.

What about the “Oral AUC %” value [2] of the same molecule?
The value was 11%.

What about the “Oral Cmax %” value [2] of the same molecule?
Its value is 24%.

Which “IN AUC %” value [1] does the source give for CC(C)[C@H](NC(=O)[C@H](Cc1ccccc1)NC(=O)[C@@H](N)Cc1ccccc1)C(=O)OC1=CC[C@H]2[C@H]3Cc4ccc(O)c5c4[C@@]2(CCN3C)[C@H]1O5 [FFV-HM] here?
The value was 98%.

And the “IN Cmax %” value [1]?
The value was 103%.

What about the “Oral AUC %” value [2] of the same molecule?
Its value is 8%.

What about the “Oral Cmax %” value [2] of the same molecule?
Its value is 36%.

Which results are given for CC[C@H](C)[C@H](NC(=O)CNC(=O)CN)C(=O)OC1=CCC2[C@H]3Cc4ccc(O)c5c4[C@@]2(CCN3C)C1O5 (some centres unmarked) [GGI-HM]?
IN AUC % [1]: 24%; IN Cmax % [1]: 66%; Oral AUC % [2]: 17%; Oral Cmax % [2]: 32%

Which “IN AUC %” value [1] does the source give for CC(C)C[C@H](NC(=O)CNC(=O)CN)C(=O)OC1=CCC2[C@H]3Cc4ccc(O)c5c4[C@@]2(CCN3C)C1O5 (some centres unmarked) [GGL-HM] here?
Its value is 52%.

What about the “IN Cmax %” value [1] of the same molecule?
Its value is 85%.

What about the “Oral AUC %” value [2] of the same molecule?
The value was 22%.

And the “Oral Cmax %” value [2]?
Its value is 43%.

With CC(C)[C@H](NC(=O)CNC(=O)CN)C(=O)OC1=CCC2[C@H]3Cc4ccc(O)c5c4[C@@]2(CCN3C)C1O5 (some centres unmarked) [GGV-HM] as the molecule, how does the “IN AUC %” value [1] read?
The value was 51%.

What about the “IN Cmax %” value [1] of the same molecule?
The value was 73%.

What about the “Oral AUC %” value [2] of the same molecule?
Its value is 53%.

What about the “Oral Cmax %” value [2] of the same molecule?
Its value is 63%.

Which results are given for CC[C@H](C)[C@H](NC(=O)CNC(=O)CN)C(=O)OC1=CCC2[C@H]3Cc4ccc(OC)c5c4[C@@]2(CCN3C)C1O5 (stereo partly drawn) [Gly-Gly-Ile-HC]?
stability 90 C., 20 min BP [3]: 100; stability 90 C., 20 min BS [3]: 100; stability 90 C., 20 min TW [3]: 93; stability 90 C., 20 min V [3]: 0

What does the source list for CC[C@H](C)[C@H](NC(=O)[C@H](CCCCN)NC(=O)[C@@H](N)CCCCN)C(=O)OC1=CCC2[C@H]3Cc4ccc(O)c5c4[C@@]2(CCN3C)C1O5 (some centres unmarked) [KKI-HM]?
IN AUC % [1]: 68%; IN Cmax % [1]: 85%; Oral AUC % [2]: 24%; Oral Cmax % [2]: 56%

With CC(C)C[C@H](NC(=O)[C@H](CCCCN)NC(=O)[C@@H](N)CCCCN)C(=O)OC1=CCC2[C@H]3Cc4ccc(O)c5c4[C@@]2(CCN3C)C1O5 (some centres unmarked) [KKL-HM] as the molecule, how does the “IN AUC %” value [1] read?
Its value is 87%.

What about the “IN Cmax %” value [1] of the same molecule?
The value was 96%.

And the “Oral AUC %” value [2]?
The value was 24%.

And the “Oral Cmax %” value [2]?
The value was 50%.

For CC(C)[C@H](NC(=O)[C@H](CCCCN)NC(=O)[C@@H](N)CCCCN)C(=O)OC1=CCC2[C@H]3Cc4ccc(O)c5c4[C@@]2(CCN3C)C1O5 (some centres unmarked) [KKV-HM], which “IN AUC %” value [1] is on record?
The value was 75%.

And the “IN Cmax %” value [1]?
Its value is 89%.

And the “Oral AUC %” value [2]?
The value was 43%.

And the “Oral Cmax %” value [2]?
Its value is 60%.

Which “IN AUC %” value [1] does the source give for CC[C@H](C)[C@H](NC(=O)[C@@H]1CCCN1C(=O)[C@@H]1CCCN1)C(=O)OC1=CCC2[C@H]3Cc4ccc(O)c5c4[C@@]2(CCN3C)C1O5 (some centres unmarked) [PPI-HM] here?
The value was 77%.

What about the “IN Cmax %” value [1] of the same molecule?
The value was 95%.

And the “Oral AUC %” value [2]?
Its value is 21%.

What about the “Oral Cmax %” value [2] of the same molecule?
Its value is 60%.

What does the source list for CC(C)C[C@H](NC(=O)[C@@H]1CCCN1C(=O)[C@@H]1CCCN1)C(=O)OC1=CCC2[C@H]3Cc4ccc(O)c5c4[C@@]2(CCN3C)C1O5 (some centres unmarked) [PPL-HM]?
IN AUC % [1]: 53%; IN Cmax % [1]: 70%; Oral AUC % [2]: 22%; Oral Cmax % [2]: 45%

With CC(C)[C@H](NC(=O)[C@@H]1CCCN1C(=O)[C@@H]1CCCN1)C(=O)OC1=CCC2[C@H]3Cc4ccc(O)c5c4[C@@]2(CCN3C)C1O5 (some centres unmarked) [PPV-HM] as the molecule, how does the “IN AUC %” value [1] read?
Its value is 71%.

And the “IN Cmax %” value [1]?
The value was 101%.

And the “Oral AUC %” value [2]?
The value was 24%.

And the “Oral Cmax %” value [2]?
The value was 55%.

With CC[C@H](C)[C@H](NC(=O)[C@@H]1CCCN1C(=O)[C@@H]1CCCN1)C(=O)OC1=CCC2[C@H]3Cc4ccc(OC)c5c4[C@@]2(CCN3C)C1O5 (stereo partly drawn) [Pro-Pro-Ile-HC] as the molecule, how does the “stability 90 C., 20 min BP” value [3] read?
The value was 16.

And the “stability 90 C., 20 min BS” value [3]?
Its value is 100.

What about the “stability 90 C., 20 min TW” value [3] of the same molecule?
Its value is 70.

And the “stability 90 C., 20 min V” value [3]?
The value was 0.

With CC[C@H](C)[C@H](NC(=O)[C@@H]1CCCN1C(=O)[C@@H]1CCCN1C(=O)[C@H](Cc1ccc(O)cc1)NC(=O)[C@@H](N)Cc1ccc(O)cc1)C(=O)OC1=CCC2[C@H]3Cc4ccc(OC)c5c4[C@@]2(CCN3C)C1O5 (some centres unmarked) [Tyr2-Pro2-Ile-HC] (H-YYPPI-X1) as the molecule, how does the “bioavailabiltty (% HC) oral AUC” value [4] read?
The value was 218 % HC.

What about the “bioavailabiltty (% HC) oral Cmax” value [4] of the same molecule?
The value was 213 % HC.

What about the “stability 90 C., 20 min BP” value [3] of the same molecule?
Its value is 100.

What about the “stability 90 C., 20 min BS” value [3] of the same molecule?
Its value is 100.

What about the “stability 90 C., 20 min TW” value [3] of the same molecule?
The value was 83.

What about the “stability 90 C., 20 min V” value [3] of the same molecule?
The value was 0.

Which “IN AUC %” value [1] does the source give for CC[C@H](C)[C@H](NC(=O)[C@H](Cc1ccccc1)NC(=O)[C@H](Cc1ccccc1)NC(=O)[C@H](Cc1ccc(O)cc1)NC(=O)[C@@H](N)Cc1ccc(O)cc1)C(=O)OC1=CCC2[C@H]3Cc4ccc(OC(C)=O)c5c4[C@@]2(CCN3C)C1O5 (some centres unmarked) [YYFFI-HM-OAc] (H-YYFFI-X4) here?
The value was 59%.

What about the “IN Cmax %” value [1] of the same molecule?
Its value is 72%.

What about the “Oral AUC %” value [2] of the same molecule?
The value was 29%.

And the “Oral Cmax %” value [2]?
Its value is 40%.

With CC[C@H](C)[C@H](NC(=O)[C@H](Cc1ccccc1)NC(=O)[C@H](Cc1ccccc1)NC(=O)[C@H](Cc1ccc(O)cc1)NC(=O)[C@@H](N)Cc1ccc(O)cc1)C(=O)OC1=CCC2[C@H]3Cc4ccc(O)c5c4[C@@]2(CCN3C)C1O5 (some centres unmarked) [YYFFI-HM] (H-YYFFI-X3) as the molecule, how does the “IN AUC %” value [1] read?
Its value is 4%.

What about the “IN Cmax %” value [1] of the same molecule?
Its value is 7%.

And the “Oral AUC %” value [2]?
The value was 40%.

And the “Oral Cmax %” value [2]?
The value was 52%.

Which “IN AUC %” value [1] does the source give for CC[C@H](C)[C@H](NC(=O)[C@H](Cc1ccc(O)cc1)NC(=O)[C@@H](N)Cc1ccc(O)cc1)C(=O)OC1=CCC2[C@H]3Cc4ccc(O)c5c4[C@@]2(CCN3C)C1O5 (some centres unmarked) [YYI-HM] here?
The value was 88%.

What about the “IN Cmax %” value [1] of the same molecule?
Its value is 86%.

What about the “Oral AUC %” value [2] of the same molecule?
The value was 32%.

And the “Oral Cmax %” value [2]?
Its value is 66%.

Which “stability 90 C., 20 min BP” value [3] does the source give for “(d)-Lys-(1)-Lys-Ile-Hydrocodone [(d)Lys(I)Lys-Ile-HC]” here?
The value was 69.

And the “stability 90 C., 20 min BS” value [3]?
Its value is 100.

What about the “stability 90 C., 20 min TW” value [3] of the same molecule?
Its value is 74.

And the “stability 90 C., 20 min V” value [3]?
Its value is 0.

With “Gly-Gly-Leu-Hydrocodone [Gly-Gly-Leu-HC]” as the molecule, how does the “stability 90 C., 20 min BP” value [3] read?
Its value is 100.

What about the “stability 90 C., 20 min BS” value [3] of the same molecule?
The value was 100.

And the “stability 90 C., 20 min TW” value [3]?
The value was 85.

What about the “stability 90 C., 20 min V” value [3] of the same molecule?
Its value is 1.
